To fix the notation:
T1: EsCas13d, nuclease-dead (Eubacterium siraeum, UniProt B0MS50, R295A;H300A;R849A;H854A)
T1 sequence: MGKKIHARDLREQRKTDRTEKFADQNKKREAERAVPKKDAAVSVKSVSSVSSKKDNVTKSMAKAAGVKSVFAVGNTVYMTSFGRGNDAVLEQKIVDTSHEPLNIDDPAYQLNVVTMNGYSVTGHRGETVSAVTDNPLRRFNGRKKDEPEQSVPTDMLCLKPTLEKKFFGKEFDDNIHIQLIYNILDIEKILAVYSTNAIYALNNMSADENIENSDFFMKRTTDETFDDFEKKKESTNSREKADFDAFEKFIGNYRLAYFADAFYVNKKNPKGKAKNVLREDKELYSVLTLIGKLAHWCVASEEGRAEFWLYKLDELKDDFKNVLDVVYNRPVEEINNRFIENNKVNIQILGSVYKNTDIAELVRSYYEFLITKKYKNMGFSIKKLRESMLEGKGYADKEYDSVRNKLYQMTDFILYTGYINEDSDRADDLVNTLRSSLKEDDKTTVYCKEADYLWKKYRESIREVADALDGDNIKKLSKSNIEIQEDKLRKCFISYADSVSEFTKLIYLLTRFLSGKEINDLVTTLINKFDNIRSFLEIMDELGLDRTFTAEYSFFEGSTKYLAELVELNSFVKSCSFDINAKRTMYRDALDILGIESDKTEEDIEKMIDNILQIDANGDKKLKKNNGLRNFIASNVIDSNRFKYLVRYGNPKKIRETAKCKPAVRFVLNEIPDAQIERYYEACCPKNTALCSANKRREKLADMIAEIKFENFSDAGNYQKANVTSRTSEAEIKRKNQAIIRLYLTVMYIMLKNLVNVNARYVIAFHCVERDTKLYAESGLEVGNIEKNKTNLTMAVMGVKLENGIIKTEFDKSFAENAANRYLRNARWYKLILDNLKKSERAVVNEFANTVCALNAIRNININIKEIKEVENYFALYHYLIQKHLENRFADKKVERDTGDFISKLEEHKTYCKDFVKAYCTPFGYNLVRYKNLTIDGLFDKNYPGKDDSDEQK

B1: target 1 insA 3' of 22,insC 3' of 22 (mixed)
RNA 1: CACCCGUGCAAAAAUGCAGGGGUCUAAAACUGAGCGGAUAACCUCUCUAUGG
RNA 2: GGGAAUGGAUCCACAUCUACGAAUUCGUACACCAUAGAGAGGUUAUCCGCUCACCGAGAUCGGAAGAGCACACGU
B2: target 1 U3A,G5C (mixed)
RNA 1: CACCCGUGCAAAAAUGCAGGGGUCUAAAACUGAGCGGAUAACCUCUCUAUGG
RNA 2: GGGAAUGGAUCCACAUCUACGAAUUCGUACCAUAGAGAGGUUAUCCCCACACCGAGAUCGGAAGAGCACACGU
B3: target 1 complement block 1-9 (mixed)
RNA 1: CACCCGUGCAAAAAUGCAGGGGUCUAAAACUGAGCGGAUAACCUCUCUAUGG
RNA 2: GGGAAUGGAUCCACAUCUACGAAUUCGUACCAUAGAGAGGUUUAGGCGAGUCCGAGAUCGGAAGAGCACACGU
B4: target 1 insC 3' of 10,insC 3' of 8 (mixed)
RNA 1: CACCCGUGCAAAAAUGCAGGGGUCUAAAACUGAGCGGAUAACCUCUCUAUGG
RNA 2: GGGAAUGGAUCCACAUCUACGAAUUCGUACCAUAGAGAGGUUCAUCCCGCUCACCGAGAUCGGAAGAGCACACGU
B5: target 1 U11A,G13U (mixed)
RNA 1: CACCCGUGCAAAAAUGCAGGGGUCUAAAACUGAGCGGAUAACCUCUCUAUGG
RNA 2: GGGAAUGGAUCCACAUCUACGAAUUCGUACCAUAGAGAUGAUAUCCGCUCACCGAGAUCGGAAGAGCACACGU
B6: target 1 insA 3' of 11,insU 3' of 1 (mixed)
RNA 1: CACCCGUGCAAAAAUGCAGGGGUCUAAAACUGAGCGGAUAACCUCUCUAUGG
RNA 2: GGGAAUGGAUCCACAUCUACGAAUUCGUACCAUAGAGAGGUAUAUCCGCUCAUCCGAGAUCGGAAGAGCACACGU
B7: target 1 insA 3' of 11,insC 3' of 1 (mixed)
RNA 1: CACCCGUGCAAAAAUGCAGGGGUCUAAAACUGAGCGGAUAACCUCUCUAUGG
RNA 2: GGGAAUGGAUCCACAUCUACGAAUUCGUACCAUAGAGAGGUAUAUCCGCUCACCCGAGAUCGGAAGAGCACACGU
B8: target 1 insC 3' of 14,insG 3' of 4 (mixed)
RNA 1: CACCCGUGCAAAAAUGCAGGGGUCUAAAACUGAGCGGAUAACCUCUCUAUGG
RNA 2: GGGAAUGGAUCCACAUCUACGAAUUCGUACCAUAGAGACGGUUAUCCGCGUCACCGAGAUCGGAAGAGCACACGU
B9: target 1 A1U,C2A (mixed)
RNA 1: CACCCGUGCAAAAAUGCAGGGGUCUAAAACUGAGCGGAUAACCUCUCUAUGG
RNA 2: GGGAAUGGAUCCACAUCUACGAAUUCGUACCAUAGAGAGGUUAUCCGCUAUCCGAGAUCGGAAGAGCACACGU
B10: target 1 insG 3' of 18,insA 3' of 12 (mixed)
RNA 1: CACCCGUGCAAAAAUGCAGGGGUCUAAAACUGAGCGGAUAACCUCUCUAUGG
RNA 2: GGGAAUGGAUCCACAUCUACGAAUUCGUACCAUAGGAGAGGAUUAUCCGCUCACCGAGAUCGGAAGAGCACACGU
B11: target 1 C6G,G17A (mixed)
RNA 1: CACCCGUGCAAAAAUGCAGGGGUCUAAAACUGAGCGGAUAACCUCUCUAUGG
RNA 2: GGGAAUGGAUCCACAUCUACGAAUUCGUACCAUAAAGAGGUUAUCGGCUCACCGAGAUCGGAAGAGCACACGU
B12: target 1 G17U,A20C (mixed)
RNA 1: CACCCGUGCAAAAAUGCAGGGGUCUAAAACUGAGCGGAUAACCUCUCUAUGG
RNA 2: GGGAAUGGAUCCACAUCUACGAAUUCGUACCCUAUAGAGGUUAUCCGCUCACCGAGAUCGGAAGAGCACACGU
B13: target 1 insC 3' of 13,insC 3' of 5 (mixed)
RNA 1: CACCCGUGCAAAAAUGCAGGGGUCUAAAACUGAGCGGAUAACCUCUCUAUGG
RNA 2: GGGAAUGGAUCCACAUCUACGAAUUCGUACCAUAGAGAGCGUUAUCCGCCUCACCGAGAUCGGAAGAGCACACGU

For the data set, the target named is T1, EsCas13d, nuclease-dead. Nature of the data set: crRNA (strand 1, pre-loaded); Mg2+; 40 mM Tris-HCl pH 7.5, 150 mM NaCl, 6 mM MgCl2, 1 mM DTT, 0.1% Tween-20, 0.2 mg/ml BSA; 25 C; 10 min per concentration, then washed. The note with it: tags: His6-TwinStrep-SUMO cleaved; N-terminal SNAP kept (SNAP-Surface 488); label: 3' end held by stalled T7 RNA polymerase.
Consider B1, for which binding was characterised by a dissociation constant (Kd) of 0.00892 ± 0.00033 µM.
Consider B2, for which the Kd stood at 0.0169 ± 0.0009 µM.
For the molecule B3, binding was characterised by a dissociation constant (Kd) of 0.0095 ± 0.0007 µM.
B4 registered a dissociation constant Kd of 0.063 ± 0.013 µM.
Molecule B5 returned a dissociation constant (Kd) of 0.0342 ± 0.0022 µM.
In turn, B6 showed a Kd of 0.019 ± 0.0013 µM.
B7 showed a Kd of 0.0158 ± 0.0011 µM.
Turning to B8, the Kd stood at 0.021 ± 0.0012 µM.
Next, B9: 0.0084 ± 0.0007 µM; B10: 0.073 ± 0.032 µM; B11: 0.048 ± 0.006 µM.
With B12, binding was characterised by a dissociation constant (Kd) of 0.088 ± 0.021 µM.
Turning to B13, the Kd is 0.0169 ± 0.0012 µM.

What is called Kd is the equilibrium constant for the complex coming apart. Read a low Kd as tighter binding.

The values above are taken from paper PMC10786891, “Massively parallel profiling of RNA-targeting CRISPR-Cas13d”.
